# Data from patent US20250122304A1, “PRE-TARGETING” (Precirix N.V., priority 2022, published 2025).
# T1: human fibroblast activation protein (FAP) (human, UniProt Q12884 26-760)
# T1 construct: also called human FAP; hFAP
# T1 sequence: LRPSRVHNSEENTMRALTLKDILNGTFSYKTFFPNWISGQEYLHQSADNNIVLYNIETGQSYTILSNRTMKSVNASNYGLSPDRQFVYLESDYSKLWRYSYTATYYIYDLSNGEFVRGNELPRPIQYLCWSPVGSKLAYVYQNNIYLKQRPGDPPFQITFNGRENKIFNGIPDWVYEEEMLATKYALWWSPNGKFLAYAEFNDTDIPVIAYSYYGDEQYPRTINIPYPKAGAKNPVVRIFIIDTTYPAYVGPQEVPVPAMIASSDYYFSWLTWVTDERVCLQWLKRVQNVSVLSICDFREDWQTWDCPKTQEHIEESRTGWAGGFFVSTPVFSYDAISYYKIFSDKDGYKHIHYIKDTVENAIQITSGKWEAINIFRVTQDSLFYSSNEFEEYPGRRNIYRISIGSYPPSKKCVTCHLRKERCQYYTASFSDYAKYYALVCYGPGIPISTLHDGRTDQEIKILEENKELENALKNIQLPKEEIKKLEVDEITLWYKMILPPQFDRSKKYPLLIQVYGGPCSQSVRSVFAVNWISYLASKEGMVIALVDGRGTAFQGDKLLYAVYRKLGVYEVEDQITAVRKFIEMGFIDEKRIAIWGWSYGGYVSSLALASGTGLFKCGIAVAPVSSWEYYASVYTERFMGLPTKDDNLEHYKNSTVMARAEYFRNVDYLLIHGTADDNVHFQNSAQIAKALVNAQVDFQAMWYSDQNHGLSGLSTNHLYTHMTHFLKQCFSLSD
# T2: human FAP (Homo sapiens, UniProt Q12884)
# T2 sequence (Q12884 1-760): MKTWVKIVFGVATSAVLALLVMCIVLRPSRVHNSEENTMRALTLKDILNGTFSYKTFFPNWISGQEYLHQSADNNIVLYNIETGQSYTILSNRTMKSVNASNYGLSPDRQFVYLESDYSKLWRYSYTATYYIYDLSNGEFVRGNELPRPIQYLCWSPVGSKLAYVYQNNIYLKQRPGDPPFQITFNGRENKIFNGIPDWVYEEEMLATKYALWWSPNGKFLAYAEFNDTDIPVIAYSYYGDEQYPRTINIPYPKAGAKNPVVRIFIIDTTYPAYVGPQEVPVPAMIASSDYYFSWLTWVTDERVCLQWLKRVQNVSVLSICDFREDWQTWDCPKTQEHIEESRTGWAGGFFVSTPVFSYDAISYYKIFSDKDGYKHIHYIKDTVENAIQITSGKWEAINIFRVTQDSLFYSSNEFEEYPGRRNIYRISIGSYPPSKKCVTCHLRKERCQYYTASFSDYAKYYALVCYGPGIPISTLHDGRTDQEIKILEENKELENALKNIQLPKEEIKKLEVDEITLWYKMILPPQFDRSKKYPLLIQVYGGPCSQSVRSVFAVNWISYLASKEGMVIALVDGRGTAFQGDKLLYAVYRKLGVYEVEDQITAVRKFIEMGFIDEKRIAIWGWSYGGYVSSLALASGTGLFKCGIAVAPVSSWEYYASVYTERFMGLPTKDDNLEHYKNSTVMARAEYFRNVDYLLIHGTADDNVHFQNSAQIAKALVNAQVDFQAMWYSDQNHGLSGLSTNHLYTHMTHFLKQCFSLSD
# Experiments:
# [1] = target: T3, human folate receptor alpha (FOLR1) (human, UniProt P15328 25-234, limits assumed); assay: SPR (Biacore), kinetics to hFOLR1, pre TCO conjugation
# T3 construct: also called hFOLR1; human FOLR1
# [2] = target: T3, human folate receptor alpha (FOLR1); assay: SPR (Biacore), kinetics to hFOLR1, post TCO conjugation
# hFOLR1 [3] = target: T4, hFOLR1 (Homo sapiens, UniProt P15328); assay: SPR (Biacore) binding kinetics before and after TCO conjugation (Example 8, Table 19)
# From the text: Using Surface Plasmon Resonance (Biacore) we determined the binding kinetics of the unconjugated and TCO-conjugated VHH (TCO-VHH) for the respective target as described earlier for VHH2 and VHH8 (EP3718574A1).
# hFOLR1 [4] = target: T4, hFOLR1; assay: SPR click reaction with Tz-R3B23, span of relative response (Example 8, Table 20); details: Biacore
# Protocol: Next, the click reaction was verified using SPR. 5 μg/mL recombinant hHER2 in 10 mM NaOAc pH 4.5 or 5 μg/mL recombinant hFOLR1 in 10 mM NaOAc pH 5.5 was immobilized on a Biacore Sensor Chip CM5 to a target level of 740 Response Units (RU) and 250 RU, respectively. […] For the VHH7 binding FOLR1 a VHH concentration of 5 nM was used, and the association and dissociation phases took 450 s and 900 s, respectively. […] As a negative control for the click reaction, we injected assay buffer (HBS) instead of the Tz-R3B23 over the flow cell. Using the Biacore evaluation software we determined the difference between the relative response before and after the click reaction with either the Tz-R3B23 or the negative control assay buffer. This difference is further on referred to as span.
# [5] = target: T1, human fibroblast activation protein …; assay: BLI (Octet), kinetics to human FAP, post TCO conjugation
# Protocol: Using the BLI technology on Octet system the binding kinetics towards human FAP were determined for each of the five VHHs pre- and post-TCO conjugation.
# human FAP = target: T2, human FAP; assay: BLI click reaction with Tz-R3B23 on TCO-VHHs bound to target, span (Example 7, Table 18); details: signal difference vs assay buffer
# Protocol: Next, Octet Streptavidin (SA) Biosensors were coated with 5 μg/mL biotinylated human FAP in assay buffer (HBS+0.5% BSA+0.1% Tween20) for 5 minutes. The sensors were then dipped in wells containing a 5 nM solution of the different VHHs (both TCO conjugated and unconjugated as control) for 20 minutes (association step) and further transferred to the assay buffer (dissociation step) for 30 minutes. After the dissociation phase, that simulates the lag time, the sensors were transferred to either a well containing 50 nM of a tetrazine-coupled, non-FAP binding R3B23 (Tz-R3B23) or to a well containing assay buffer as a control. This reaction was allowed to proceed for 20 minutes (experiment 1) or 30 minutes (experiment 2) after which the sensors were washed for 30 minutes in assay buffer. In the second experiment the TCO-VHHs were measured in duplicate (referred to as assay 1 and 2 of ‘experiment 2’ in the table below). Using the epitope binning function of ‘Octet Analysis Software’ we then determined the difference in signal between the VHHs incubated with Tz-R3B23 and the VHHs incubated with assay buffer. […] The span of unconjugated VHHs was considered as noise.
# T3 sequence (P15328 25-234 limits assumed): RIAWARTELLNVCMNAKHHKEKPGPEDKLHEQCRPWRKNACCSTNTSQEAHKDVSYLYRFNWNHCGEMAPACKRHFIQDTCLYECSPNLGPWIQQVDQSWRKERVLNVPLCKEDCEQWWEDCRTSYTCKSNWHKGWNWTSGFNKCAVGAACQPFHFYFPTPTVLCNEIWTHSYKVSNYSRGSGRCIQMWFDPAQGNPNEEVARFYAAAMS
# T4 sequence (P15328 25-234): as the sequence (P15328 25-234 limits assumed) above
molecule,measurement,setting,value
"VHH2 (VHH, Anti-FOLR1 VHH, tested before TCO conjugation; also called VHH VHH2; unconjugated VHH2) VHH: DVQLVESGGGLVQPGGSLRLSCAASESIFSRNHMSWYRQAPGKQRELAAIITSDGNTNYPDSVKGRFTISRDNAKNTVYLQMNSLKPEDTAVYYCNTFGRSVAGFYDYWGQGTQVTVSS",Kd,[1],47 pM
same,koff,[1],0.000167 s⁻¹
same,kon,[1],3.54e+06 M⁻¹ s⁻¹
"TCO-VHH2 (VHH, trans-cyclooctene (TCO) conjugated via NHS-TCO; site(s) and number not stated, also called TCO-conjugated VHH2; VHH2 post conjugation) VHH: DVQLVESGGGLVQPGGSLRLSCAASESIFSRNHMSWYRQAPGKQRELAAIITSDGNTNYPDSVKGRFTISRDNAKNTVYLQMNSLKPEDTAVYYCNTFGRSVAGFYDYWGQGTQVTVSS",Kd,[2],73.4 pM
same,koff,[2],0.000192 s⁻¹
same,kon,[2],2.61e+06 M⁻¹ s⁻¹
"VHH2: VHH, target FOLR1, SEQ ID NO 21 (protein, Full length sequence of VHH2) VHH: DVQLVESGGGLVQPGGSLRLSCAASESIFSRNHMSWYRQAPGKQRELAAIITSDGNTNYPDSVKGRFTISRDNAKNTVYLQMNSLKPEDTAVYYCNTFGRSVAGFYDYWGQGTQVTVSS",binding kinetics after TCO conjugation,hFOLR1 [3],barely affected
same,koff,hFOLR1 [3]; Post conjugation (TCO),0.000192 s⁻¹
same,kon,hFOLR1 [3]; Post conjugation (TCO),2.61e+06 M⁻¹ s⁻¹
same,koff,hFOLR1 [3]; Pre conjugation,0.000167 s⁻¹
same,kon,hFOLR1 [3]; Pre conjugation,3.54e+06 M⁻¹ s⁻¹
same,Span of the Relative Response,"hFOLR1 [4]; TCO-VHH bound on hFOLR1, Tz-R3B23 at 100 times molar excess",12.3 RU
same,Span of the Relative Response,"hFOLR1 [4]; Unconjugated VHH bound on hFOLR1, Tz-R3B23 at 100 times molar excess",0.6 RU
"TCO-VHH1 (VHH, trans-cyclooctene (TCO) conjugated via TCO-NHS; site(s) and number not stated, also called TCO conjugated VHH1; VHH1 post conjugation) VHH: DVQLVESGGGLVQPGGSLRLSCVASGRLSSSNSMAWYRQVPGKRRELVAGITGGGETNYADFVGGRFTISRDNAKNGLYLQLNGLKPEDTAAYYCNFWPPLINYWGQGTQVTVSS",Kd,[5],71.9 pM
same,koff,[5],4.99e-05 s⁻¹
same,kon,[5],694000 M⁻¹ s⁻¹
"TCO-VHH7 (VHH, trans-cyclooctene (TCO) conjugated via TCO-NHS; site(s) and number not stated, also called TCO conjugated VHH7; VHH7 post conjugation) VHH: QVQLQESGGGLVQAGGSLRLSCTASGTFSGRNAMAWYRQAPGKRRELVAGIRSDDSTNYVDSVKGRFTISRDNAKNTVYLQMNSLRPEDTAVYYCNLWPPVIGAGFGSWGQGTQVTVSS",Kd,[5],166 pM
same,koff,[5],0.000123 s⁻¹
same,kon,[5],746000 M⁻¹ s⁻¹
"TCO-VHH9 (VHH, trans-cyclooctene (TCO) conjugated via TCO-NHS; site(s) and number not stated, also called TCO conjugated VHH9; VHH9 post conjugation) VHH: QVQLQESGGGLVQSGGSLRLSCVASGSISSINAMGWYRQAPGNKREWVAGITSGGSTNYADAVLGRFSIFRDNPKNTVYLQMNSLKPEDTAVYYCNTWPPSTFGSWGQGTQVTVSS",Kd,[5],951 pM
same,koff,[5],0.0012 s⁻¹
same,kon,[5],1.26e+06 M⁻¹ s⁻¹
"TCO-VHH8 (VHH, trans-cyclooctene (TCO) conjugated via TCO-NHS; site(s) and number not stated, also called TCO conjugated VHH8; VHH8 post conjugation) VHH: QVQLQESGGGTVQPGGSLRLSCAASGISVSIASMAWYRQAPGKQRELVAGIISGGSTNYADSVKGRFTISRDNAKKVVLLQMNSLKPEDTAVYYCNTYPPFVGPGATATWGQGTQVTVSS",Kd,[5],671 pM
same,koff,[5],0.000559 s⁻¹
same,kon,[5],833000 M⁻¹ s⁻¹
"TCO-VHH6 (VHH, trans-cyclooctene (TCO) conjugated via TCO-NHS; site(s) and number not stated, also called TCO conjugated VHH6; VHH6 post conjugation) VHH: DVQLVESGGGLVQAGGSLRLSCAVSGSISSANSMGWYRQAPGKQRDVVAGLTTGGRSHYADSVKGRFTISRDNAKNTVYLQMNSLKAEDTAVYYCNLWPPVQGYWGQGTQVTVSS",Span,"human FAP; Experiment 1, click reaction with 50 nM Tz-R3B23 for 20 minutes",0.0230
same,Span,"human FAP; Experiment 2, 1st assay, click reaction with 50 nM Tz-R3B23 for 30 minutes",0.0287
same,Span,"human FAP; Experiment 2, 2nd assay, click reaction with 50 nM Tz-R3B23 for 30 minutes",0.0229
same,Kd,[5],147 pM
same,koff,[5],0.000157 s⁻¹
same,kon,[5],1.07e+06 M⁻¹ s⁻¹
